Laboratory results taken from publication PMC7190159, “The L motifs of two moss pentatricopeptide repeat proteins are involved in RNA editing but predominantly not in RNA recognition”.

T1: 56ΔDYW-wt (PpPPR_56 without transit peptide and DYW domain) (Physcomitrella patens, UniProt A0A2K1IWP1 161-764)
T1 sequence: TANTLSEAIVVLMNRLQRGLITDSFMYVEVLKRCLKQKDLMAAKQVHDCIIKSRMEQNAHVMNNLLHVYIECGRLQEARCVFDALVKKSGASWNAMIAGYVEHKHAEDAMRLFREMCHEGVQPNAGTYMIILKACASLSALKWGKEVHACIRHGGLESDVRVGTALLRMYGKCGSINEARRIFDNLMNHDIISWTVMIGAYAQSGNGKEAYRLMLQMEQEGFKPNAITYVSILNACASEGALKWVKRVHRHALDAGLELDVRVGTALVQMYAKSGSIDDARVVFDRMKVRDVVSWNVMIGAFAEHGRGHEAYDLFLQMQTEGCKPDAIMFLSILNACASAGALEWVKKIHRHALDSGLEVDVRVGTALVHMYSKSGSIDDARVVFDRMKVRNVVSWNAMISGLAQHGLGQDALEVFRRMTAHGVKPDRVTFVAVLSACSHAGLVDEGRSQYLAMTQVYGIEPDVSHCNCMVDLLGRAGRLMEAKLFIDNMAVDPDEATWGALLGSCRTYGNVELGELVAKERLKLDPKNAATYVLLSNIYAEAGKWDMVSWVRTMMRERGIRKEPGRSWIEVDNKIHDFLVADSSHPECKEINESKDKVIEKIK

T2: 56ΔDYW-nad3L (Physcomitrella patens, UniProt A0A2K1IWP1 161-764, V188N;M289T;V390T;D420N;L491N;D521S;V592N;D623S)
T2 sequence: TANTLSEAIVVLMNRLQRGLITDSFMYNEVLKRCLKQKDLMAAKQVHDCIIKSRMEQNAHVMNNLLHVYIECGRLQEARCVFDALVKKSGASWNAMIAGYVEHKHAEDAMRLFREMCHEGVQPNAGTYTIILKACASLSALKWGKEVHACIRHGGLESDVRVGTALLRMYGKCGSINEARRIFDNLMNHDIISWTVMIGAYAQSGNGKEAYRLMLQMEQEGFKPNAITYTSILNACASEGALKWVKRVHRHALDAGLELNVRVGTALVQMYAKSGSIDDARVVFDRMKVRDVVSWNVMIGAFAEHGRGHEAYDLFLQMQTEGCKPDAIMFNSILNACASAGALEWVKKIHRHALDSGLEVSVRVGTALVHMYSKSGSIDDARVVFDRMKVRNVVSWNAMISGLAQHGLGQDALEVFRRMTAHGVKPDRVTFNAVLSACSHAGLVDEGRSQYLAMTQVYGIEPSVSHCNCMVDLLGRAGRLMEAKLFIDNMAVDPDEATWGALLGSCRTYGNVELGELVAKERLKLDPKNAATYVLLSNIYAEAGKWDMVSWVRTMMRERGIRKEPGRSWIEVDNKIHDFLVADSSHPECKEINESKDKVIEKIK

T3: 56ΔDYW-13L[ED] (Physcomitrella patens, UniProt A0A2K1IWP1 161-764, V592E)
T3 sequence: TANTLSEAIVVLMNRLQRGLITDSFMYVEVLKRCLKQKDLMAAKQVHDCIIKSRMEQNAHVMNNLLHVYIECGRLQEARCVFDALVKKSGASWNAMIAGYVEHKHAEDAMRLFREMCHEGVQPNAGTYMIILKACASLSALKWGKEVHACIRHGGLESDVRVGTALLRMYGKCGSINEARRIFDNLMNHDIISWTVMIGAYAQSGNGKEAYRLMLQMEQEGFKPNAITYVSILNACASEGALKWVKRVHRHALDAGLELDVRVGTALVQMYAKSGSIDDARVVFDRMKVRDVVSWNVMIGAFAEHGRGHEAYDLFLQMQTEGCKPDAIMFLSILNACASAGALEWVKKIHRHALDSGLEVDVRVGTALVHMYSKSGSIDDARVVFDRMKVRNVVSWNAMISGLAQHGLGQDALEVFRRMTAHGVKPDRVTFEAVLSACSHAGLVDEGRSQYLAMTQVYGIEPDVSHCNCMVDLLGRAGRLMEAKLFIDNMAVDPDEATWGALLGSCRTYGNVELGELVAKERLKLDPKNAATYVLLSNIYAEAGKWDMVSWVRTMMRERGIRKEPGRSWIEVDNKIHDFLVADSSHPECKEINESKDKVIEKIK

T4: 56ΔDYW-13L[PD] (Physcomitrella patens, UniProt A0A2K1IWP1 161-764, V592P)
T4 sequence: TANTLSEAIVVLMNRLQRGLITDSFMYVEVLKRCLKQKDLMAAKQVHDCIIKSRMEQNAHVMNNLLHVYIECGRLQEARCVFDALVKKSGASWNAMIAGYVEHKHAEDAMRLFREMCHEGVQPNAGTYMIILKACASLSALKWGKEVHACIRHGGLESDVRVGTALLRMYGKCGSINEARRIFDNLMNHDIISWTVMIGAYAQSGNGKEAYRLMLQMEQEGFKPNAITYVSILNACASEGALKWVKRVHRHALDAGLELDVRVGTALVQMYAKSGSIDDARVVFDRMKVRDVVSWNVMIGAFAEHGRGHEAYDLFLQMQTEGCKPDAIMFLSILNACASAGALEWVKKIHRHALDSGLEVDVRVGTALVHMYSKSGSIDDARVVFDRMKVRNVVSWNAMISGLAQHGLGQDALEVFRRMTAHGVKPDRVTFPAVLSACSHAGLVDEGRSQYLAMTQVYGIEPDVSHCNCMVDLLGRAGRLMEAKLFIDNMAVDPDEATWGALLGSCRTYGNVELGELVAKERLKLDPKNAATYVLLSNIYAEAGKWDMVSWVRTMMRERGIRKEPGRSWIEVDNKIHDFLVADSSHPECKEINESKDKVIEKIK


What was measured:
Settings in all cases: protein: recombinant; tags: N-term thioredoxin; C-term 6xHis; label: 5'-32P
[1] = target: T1, 56ΔDYW-wt (PpPPR_56 without transit …); test: EMSA; 100 nM protein; 40 mM Tris pH 8.0, 100 mM NaCl, 4 mM DTT, 0.1 mg/mL BSA, 10% glycerol, 25°C; protein 10 min, then 50 pM RNA 15 min; native 6% PAGE
56ΔDYW-nad3L [2] = target: T2, 56ΔDYW-nad3L; test: as above
56ΔDYW-13L[ED] [3] = target: T3, 56ΔDYW-13L[ED]; test: as above
56ΔDYW-13L[PD] [4] = target: T4, 56ΔDYW-13L[PD]; test: as above
56ΔDYW-13L[ED] [5] = target: T3, 56ΔDYW-13L[ED]; test: EMSA; like wt; 40 mM Tris pH 8.0, 100 mM NaCl, 4 mM DTT, 0.1 mg/mL BSA, 10% glycerol, 25°C; protein 10 min, then 50 pM RNA 15 min; native 6% PAGE
56ΔDYW-13L[PD] [6] = target: T4, 56ΔDYW-13L[PD]; test: as above
56ΔDYW-nad3L [7] = target: T2, 56ΔDYW-nad3L; test: EMSA; no significant difference from wt; 40 mM Tris pH 8.0, 100 mM NaCl, 4 mM DTT, 0.1 mg/mL BSA, 10% glycerol, 25°C; protein 10 min, then 50 pM RNA 15 min; native 6% PAGE
[8] = target: T1, 56ΔDYW-wt (PpPPR_56 without transit …); test: EMSA; 0-100 nM protein, 50 pM RNA; lower affinity than for nad4; 40 mM Tris pH 8.0, 100 mM NaCl, 4 mM DTT, 0.1 mg/mL BSA, 10% glycerol, 25°C; protein 10 min, then 50 pM RNA 15 min; native 6% PAGE
[9] = target: T1, 56ΔDYW-wt (PpPPR_56 without transit …); test: EMSA; 0-100 nM protein, 50 pM RNA; better affinity than for nad3; 40 mM Tris pH 8.0, 100 mM NaCl, 4 mM DTT, 0.1 mg/mL BSA, 10% glycerol, 25°C; protein 10 min, then 50 pM RNA 15 min; native 6% PAGE

| Binder | binding result [1] | binding result (56ΔDYW-nad3L [2]) | binding result (56ΔDYW-13L[ED] [3]) | binding result (56ΔDYW-13L[PD] [4]) | binding result (56ΔDYW-13L[ED] [5]) | binding result (56ΔDYW-13L[PD] [6]) | binding result (56ΔDYW-nad3L [7]) | binding result [8] | binding result [9] |
| --- | --- | --- | --- | --- | --- | --- | --- | --- | --- |
| UUAUUUUUUUCGUUUCUCUUUUUGUUUUU (ssRNA) [PpPsbI-RNA1] | no binding | no binding | no binding | no binding |  |  |  |  |  |
| UUAUUAUAUUUGAUUUGGAAGUCACCUUUUCAUUUC (ssRNA) [nad3-edit] |  |  |  |  | binds | binds | binds | binds |  |
| AUUUUUAUAUAGGUAUAGACGGUAUCUCUUCAUUUU (ssRNA) [nad4-edit] |  |  |  |  | binds | binds |  |  | binds |
